Results reported in US20250313626A1 (HARBOUR BIOMED SHANGHAI, published 2025).
Substitutions are numbered along the chain they refer to. Like-named read-outs stand apart in the source and are kept apart here. Blank lines part the entries; values can stand above or below the binder they belong to.

Tests used:
Mouse CD200R1-His = target: T1, Mouse CD200R1-His (mouse, UniProt Q9ES57 26-238, limits assumed); experiment: BLI (Octet), antibody captured on anti-human Fc sensor
T1 sequence (looked up): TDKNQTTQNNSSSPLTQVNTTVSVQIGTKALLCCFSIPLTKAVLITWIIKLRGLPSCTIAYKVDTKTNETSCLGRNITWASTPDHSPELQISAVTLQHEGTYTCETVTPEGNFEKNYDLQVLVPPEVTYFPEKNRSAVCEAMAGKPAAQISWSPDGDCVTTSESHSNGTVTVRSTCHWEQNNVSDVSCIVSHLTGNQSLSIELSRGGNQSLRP
Procedure: (§1) To determine the binding affinities of the anti-CD200R1 antibodies to CD200R1a proteins of various species (mouse, human, Cynomolgus macaques), bio-layer interferometry (BLI) assays were carried out using an Octet® RED96e instrument. Antibodies were produced as described in Example 3.4 and diluted to 5 μg/mL using freshly prepared 1× kinetic buffer (10× kinetic buffer (Catalog #18-1105, ForteBio) was diluted with PBS(Catalog #E607016-0500, BBI Life Sciences)) and were captured on the surface of anti-human Fc (AHC) Octet biosensors (Catalog #18-5060, ForteBio) to reach capture levels between 0.9-1.2 nm. The biosensors having the captured anti-CD200R1 antibodies were then dipped in wells containing 2-fold serial dilutions of CD200R1a proteins to detect association signals, followed by dissociation steps in wells containing 1× kinetic buffer. The sensorgrams were recorded and the reference signals were subtracted before curve fitting using ForteBio Data Analysis 11.0 software. Association rates (kₒₙ) and dissociation rates (koff) were calculated using a simple one-to-one Langmuir binding model. The equilibrium dissociation constant (KD) was calculated as the ratio of koff/kₒₙ.

[1] = target: T2, human CD200R1 isoform a on CHOK1 cells (CHOK1/hCD200R1a) (human, UniProt Q8TD46 25-348); experiment: flow cytometry blocking assay: antibody titrated against biotin-labelled human CD200 binding to CHOK1/hCD200R1a cells
T2 construct: also called CHOK1/CD200R1a
T2 sequence: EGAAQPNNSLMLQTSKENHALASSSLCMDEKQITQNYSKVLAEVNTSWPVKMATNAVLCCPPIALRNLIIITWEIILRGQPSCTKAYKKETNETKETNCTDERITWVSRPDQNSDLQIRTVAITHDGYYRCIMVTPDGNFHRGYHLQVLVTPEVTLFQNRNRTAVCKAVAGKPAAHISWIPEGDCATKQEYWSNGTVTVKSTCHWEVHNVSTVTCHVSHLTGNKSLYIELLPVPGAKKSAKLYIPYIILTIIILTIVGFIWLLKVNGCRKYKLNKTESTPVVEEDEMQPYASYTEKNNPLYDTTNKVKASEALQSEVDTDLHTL
Procedure: To study the activity of human anti-CD200R1 antibodies in blocking the binding of human CD200 to its receptor CD200R1a in vitro, CHOK1/hCD200R1a was used to perform cell-level human CD200/human CD200R1a binding and blocking experiments.
(§2) In brief, CHOK1/hCD200R1a cells were digested and resuspended in 2% BSA in PBS. […] The cells were placed at 4° C. and incubated for 1 hour in the dark. […] 100 μL/well of pre-cooled PBS containing 2% BSA was added to rinse the cells twice, centrifugation was performed at 500 g, 4° C. for 5 minutes, and the supernatant was discarded. Fluorescent secondary antibody (PE Streptavidin, BD, Cat #: 554061, 1:200) was added at 100 μL/well, and incubation was performed at 4° C. for 30 minutes in the dark. The cells were washed twice with 200 μL/well of pre-cooled PBS, and were centrifuged at 500 g, 4° C. for 5 minutes, and the supernatant was discarded. Finally, 200 μL/well of pre-cooled PBS was used to resuspend the cells, and the fluorescence signal values were read using ACEA Novocyte 3000 flow cytometer. IC50 values were calculated.

[2] = target: T3, human CD200R1a protein (soluble recombinant) (human, UniProt Q8TD46 29-265); experiment: BLI (Octet), antibody captured on anti-human Fc sensor, soluble CD200R1a as analyte, 1:1 fit
T3 construct: Soluble protein used in BLI; also called human CD200R1 isoform a; not shown: His tag implied by capture on anti-Penta-HIS biosensors
T3 sequence: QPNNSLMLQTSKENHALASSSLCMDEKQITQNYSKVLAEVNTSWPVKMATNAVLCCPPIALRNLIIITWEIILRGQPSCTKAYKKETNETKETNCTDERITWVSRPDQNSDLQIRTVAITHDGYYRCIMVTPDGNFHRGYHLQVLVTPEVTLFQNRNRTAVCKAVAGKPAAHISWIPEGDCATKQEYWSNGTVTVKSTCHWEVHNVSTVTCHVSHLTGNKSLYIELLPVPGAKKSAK
Procedure: as §1

[3] = target: T2, human CD200R1 isoform a on CHOK1 cells …; experiment: flow cytometry, CHOK1/hCD200R1a cells; table beside the curves, head without unit, x axis Log [Ab] (nM)
Procedure: (§3) This example is intended to investigate the in vitro binding activity of human anti-CD200R1 monoclonal antibodies to human/Cynomolgus macaques CD200R1a expressed on the surface of cells. The anti-CD200R1 antibodies were produced as described in Example 3.4 and the binding experiments at the cell level were performed using CHOK1/hCD200R1a and CHOK1-cynoCD200R1a.
(§4) Briefly, CHOK1/hCD200R1a cells and CHOK1-cynoCD200R1a cells were digested, and collected, and then were resuspended in PBS containing 2% BSA, respectively. The cell density was adjusted to 1×10⁶ cells/mL. The cells were seeded in a 96-well V-bottom plate (Corning, #3894) at 100 μL/well, followed by the addition of test antibodies and reference antibodies in a series diluted concentration, each at 100 μL/well. The cells were incubated away from light at 4° C. for 1 h. Thereafter, the cells in each well were rinsed twice with 100 μL of pre-cooled PBS containing 2% BSA, and centrifuged at 500 g at 4° C. for 5 min, and then the supernatant was discarded. 100 μL of fluorescent secondary antibody (Alexa Fluor 488-conjugated AffiniPure Goat Anti-Human IgG, Fcγ Fragment Specific, Jackson, #109-545-098, diluted in a 1:1000 ratio) was added in each well, and the plate was incubated away from light at 4° C. for 1 h. The cells in each well were rinsed twice with 100 μL of pre-cooled PBS containing 2% BSA, and centrifuged at 500 g at 4° C. for 5 min, and then the supernatant was discarded. Finally, the cells in each well were resuspended in 200 μL of pre-cooled PBS containing 2% BSA, and the fluorescence signal values were read using a BD CantoII flow cytometer.

[4] = target: T4, CD200R1a on PathHunter Jurkat CD200R1a signaling cells (Eurofins DiscoverX, 93-1136C19) (human, UniProt Q8TD46 25-348); experiment: cell-based or functional assay
T4 sequence: T2 sequence

[5] = target: T2, human CD200R1 isoform a on CHOK1 cells …; experiment: flow cytometry blocking assay: antibody titrated against biotin-labelled human CD200 binding to CHOK1/hCD200R1a cells; head prints EC50 without unit, x axis Log [Ab] (nM), y axis Inhibition %
Procedure: as §2

[6] = target: T2, human CD200R1 isoform a on CHOK1 cells …; experiment: flow cytometry, CHOK1/hCD200R1a cells (FITC-Mean); table beside the curves
Procedure: as §3, §4

[7] = target: T2, human CD200R1 isoform a on CHOK1 cells …; experiment: flow cytometry, CHOK1/hCD200R1a cells (FITC-Mean); table beside the curves, head without unit, x axis Log [Ab] (nM)
[8] = target: T2, human CD200R1 isoform a on CHOK1 cells …; experiment: flow cytometry blocking assay: biotin-labelled human CD200 binding to CHOK1/hCD200R1a cells; y axis Inhibition %
Procedure: as §2

[9] = target: T5, Cynomolgus macaques CD200R1 isoform a on CHOK1 cells (CHOK1/cynoCD200R1a) (Cynomolgus macaques); experiment: flow cytometry, CHOK1/cynoCD200R1a cells (APC-A Mean); table beside the curves
T5 chain: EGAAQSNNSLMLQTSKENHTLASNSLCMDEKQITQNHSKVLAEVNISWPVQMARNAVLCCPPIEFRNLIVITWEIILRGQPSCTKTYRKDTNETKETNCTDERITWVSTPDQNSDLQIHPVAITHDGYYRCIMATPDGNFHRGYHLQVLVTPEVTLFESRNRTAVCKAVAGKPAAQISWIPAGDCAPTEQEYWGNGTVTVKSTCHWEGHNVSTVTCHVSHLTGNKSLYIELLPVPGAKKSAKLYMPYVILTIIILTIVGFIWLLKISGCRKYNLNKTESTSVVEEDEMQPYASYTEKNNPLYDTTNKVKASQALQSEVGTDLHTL

[10] = target: T4, CD200R1a on PathHunter Jurkat CD200R1a …; experiment: cell-based or functional assay; remark: listed apart in the source
[11] = target: T4, CD200R1a on PathHunter Jurkat CD200R1a …; experiment: cell-based or functional assay; remark: listed apart in the source

binding result (Mouse CD200R1-His): no binding
B1: PR006475 (antibody, human IgG1, kappa, L234A L235A, V domains shown)
VH: QVQLQESGPGLVKPSGTLSLTCAVSGASISSGHWWSWVRQPPGKGLEWIGEIYHSGSTNYTPSLKSRVTISVDKSKNQFSLKLTSVTAADTAVYYCAREASYHYGSGSYYTPFDFWGQGTLVTVSS
VL: EIVLTQSPATLSVSPGERATLSCRASQSVSSNLAWYQQKPGQAPRLLIYGASTRATGIPARFSGSGSGTEFTLTISSLQSEDFALYYCQQYNNWIIFGQGTRLEIKR
Blocking (Max %) [1]: 110% | IC50 [1]: 32.2 nM | Kd [2]: 12.8 nM | koff [2]: 0.000376 s⁻¹ | kon [2]: 29400 M⁻¹ s⁻¹ | EC50 [3]: 6.97 nM | IC50 of the inhibition of CD200-induced PathHunter Jurkat CD200R1a luminescence (CHOK1/hCD200 cells as CD200 source); head without unit, x axis Log [Ab] (nM) [4]: 10.6 nM

EC50 [9]: 4.69 nM | MFI (MAX) [9]: 58600
B2: PR007630 (antibody, human IgG1, kappa, V domains shown)
VH: QVQLVESGGGVVQPGRSLRLSCAASGFTFSSYGFHWVRQAPGKGLEWLGIIWSDASNKYYADSVKGRFTISRDNSKNTLYLQMNSLRAEDTAVYYCARDRIVGEGFDYWGQGTLVTVSS
VL: DIVMTQSPLSLPVTPGEPASISCRSSQSLLHRSGYNYLDWYLQKPGQSPQLLIYLGSYRASGVPDRFSGSGSGTDFTLKISRVEAEDVGVYYCMQGLQTMYTFGQGTKLEIKR
notes: PTM variant of PR006839 (human IgG1)
EC50 [5]: 0.359 nM | MFI(Max) [6]: 18900 | EC50 [7]: 0.313 nM | Blocking(Max) [8]: 99.9% | IC50 of the inhibition of CD200-induced PathHunter Jurkat CD200R1a luminescence (CHOK1/hCD200 cells as CD200 source) [10]: 0.46 nM

EC50 [9]: 3.63 nM | MFI (MAX) [9]: 51800
B3: PR007631 (antibody, human IgG1, kappa, V domains shown)
VH: B2 VH with I50L, S56R, N57H, Y59D
VL: B2 VL with A60W
notes: as for B2
EC50 [5]: 0.323 nM | MFI(Max) [6]: 19400 | EC50 [7]: 0.311 nM | Blocking(Max) [8]: 99.9% | IC50 of the inhibition of CD200-induced PathHunter Jurkat CD200R1a luminescence (CHOK1/hCD200 cells as CD200 source) [10]: 0.266 nM

EC50 [9]: 4.48 nM | MFI (MAX) [9]: 51200
B4: PR007972 (antibody, human IgG1, kappa, V domains shown)
VH: B2 VH with S31Y
VL: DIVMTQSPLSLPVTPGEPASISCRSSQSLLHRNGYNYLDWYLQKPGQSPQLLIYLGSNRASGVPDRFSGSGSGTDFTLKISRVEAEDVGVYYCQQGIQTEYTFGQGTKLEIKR
notes: as for B2
EC50 [5]: 0.158 nM | MFI(Max) [6]: 19000 | EC50 [7]: 0.19 nM | Blocking(Max) [8]: 99.9% | IC50 of the inhibition of CD200-induced PathHunter Jurkat CD200R1a luminescence (CHOK1/hCD200 cells as CD200 source) [11]: 0.368 nM
